# Test results reported in the Human Domainome abundance scans (Beltran et al. 2025).
# ± gives the uncertainty stated by the source.
# B1: FERM and PDZ domain-containing protein 4, residues 75 to 154; numbered along this chain, Q14CM0 (parent)
# chain: APRKVEMRRDPVLGFGFVAGSEKPVVVRSVTPGGPSEGKLIPGDQIVMINDEPVSAAPRERVIDLVRSCKESILLTVIQP
# Variants of: B1
# Experiment: abundance fitness (aPCA) (normalised: wild type 0, dead -1); higher = more abundant; growth selection in yeast, the domain comes from the species named
# Conditions: Homo sapiens
row,Variant,abundance fitness
1,F15W,-0.057 ± 0.029
2,F15S,-0.777 ± 0.035
3,F15T,-0.819 ± 0.053
4,F15M,-0.392 ± 0.04
5,F15Y,-0.039 ± 0.043
6,F15P,-0.857 ± 0.047
7,F15L,-0.26 ± 0.025
8,F15R,-0.911 ± 0.036
9,F15N,-0.848 ± 0.094
10,F15V,-0.815 ± 0.037
11,F15I,-0.702 ± 0.087
12,F15K,-0.905 ± 0.067
13,F15Q,-0.776 ± 0.048
14,S21T,-0.12 ± 0.031
15,S21R,-0.082 ± 0.022
16,S21C,-0.047 ± 0.033
17,S21G,0.043 ± 0.022
18,S21F,-0.021 ± 0.037
19,S21P,-0.169 ± 0.031
20,S21I,-0.234 ± 0.059
21,S21W,-0.088 ± 0.027
22,S21L,-0.049 ± 0.026
23,S21K,-0.009 ± 0.033
24,S21N,-0.002 ± 0.047

row,Variant,abundance fitness
1,S21M,-0.033 ± 0.034
2,S21V,-0.25 ± 0.026
3,S21A,0.005 ± 0.025
4,S21D,-0.003 ± 0.036
5,S21H,-0.028 ± 0.048
6,P24D,-0.433 ± 0.05
7,P24H,-0.501 ± 0.05
8,P24L,-0.77 ± 0.037
9,P24F,-0.686 ± 0.076
10,P24M,-0.53 ± 0.042
11,P24R,-0.572 ± 0.025
12,P24G,-0.329 ± 0.022
13,P24V,-0.725 ± 0.034
14,P24K,-0.64 ± 0.049
15,P24S,-0.48 ± 0.031
16,P24N,-0.333 ± 0.054
17,P24T,-0.471 ± 0.037
18,P24Y,-0.691 ± 0.081
19,P24A,-0.448 ± 0.029
20,P24I,-0.777 ± 0.08
21,P24E,-0.51 ± 0.036
22,P24W,-0.947 ± 0.049
23,P24Q,-0.472 ± 0.041
24,P24C,-0.51 ± 0.045

row,Variant,abundance fitness
1,G33I,-0.332 ± 0.055
2,G33K,-0.064 ± 0.033
3,G33N,-0.089 ± 0.048
4,G33W,-0.228 ± 0.029
5,G33M,-0.124 ± 0.033
6,G33E,-0.112 ± 0.03
7,G33V,-0.328 ± 0.027
8,G33A,-0.055 ± 0.025
9,G33T,-0.157 ± 0.031
10,G33P,-0.871 ± 0.055
11,G33H,-0.101 ± 0.045
12,G33S,-0.088 ± 0.025
13,G33R,-0.104 ± 0.022
14,G33Q,-0.122 ± 0.034
15,G33L,-0.104 ± 0.024
16,G33D,-0.024 ± 0.039
17,G33F,-0.116 ± 0.046
18,V25I,-0.116 ± 0.036
19,V25H,-0.135 ± 0.043
20,V25L,0.006 ± 0.024
21,V25Y,-0.144 ± 0.047
22,V25K,-0.889 ± 0.068
23,V25F,-0.127 ± 0.035
24,V25Q,-0.373 ± 0.034

row,Variant,abundance fitness
1,V25C,-0.005 ± 0.032
2,V25T,0.004 ± 0.031
3,V25R,-0.326 ± 0.023
4,V25M,0.157 ± 0.046
5,V25G,-0.467 ± 0.025
6,V25A,-0.052 ± 0.026
7,V25N,-0.23 ± 0.046
8,V25W,-0.078 ± 0.028
9,V25D,-0.535 ± 0.048
10,V25S,0 ± 0.026
11,V25E,-0.796 ± 0.047
12,V18M,-0.075 ± 0.034
13,V18N,-0.104 ± 0.049
14,V18W,-0.38 ± 0.03
15,V18D,-0.055 ± 0.035
16,V18I,-0.01 ± 0.038
17,V18H,-0.048 ± 0.048
18,V18K,-0.118 ± 0.032
19,V18P,-1.03 ± 0.073
20,V18F,-0.255 ± 0.044
21,V18T,-0.092 ± 0.028
22,V18A,-0.058 ± 0.023
23,V18Y,-0.078 ± 0.046
24,V18E,-0.019 ± 0.025

row,Variant,abundance fitness
1,V18L,-0.142 ± 0.025
2,V18S,-0.095 ± 0.027
3,V18G,-0.112 ± 0.02
4,V18C,-0.041 ± 0.032
5,A19E,-0.075 ± 0.028
6,A19V,0.003 ± 0.024
7,A19S,-0.066 ± 0.026
8,A19M,0.003 ± 0.033
9,A19W,-0.045 ± 0.03
10,A19C,-0.001 ± 0.037
11,A19Y,-0.081 ± 0.043
12,A19I,0.021 ± 0.048
13,A19N,-0.286 ± 0.048
14,A19P,-0.029 ± 0.029
15,A19K,-0.594 ± 0.045
16,A19H,-0.03 ± 0.046
17,A19T,-0.005 ± 0.03
18,A19Q,-0.084 ± 0.033
19,A19F,-0.016 ± 0.04
20,A19G,-0.074 ± 0.021
21,A19L,0.045 ± 0.024
22,A19R,-0.83 ± 0.034
23,T31I,-0.175 ± 0.03
24,T31V,-0.058 ± 0.025

row,Variant,abundance fitness
1,T31K,-0.012 ± 0.029
2,T31R,-0.034 ± 0.023
3,T31S,-0.001 ± 0.023
4,T31A,-0.045 ± 0.025
5,T31M,-0.067 ± 0.032
6,T31C,-0.108 ± 0.033
7,T31E,-0.013 ± 0.032
8,T31H,-0.016 ± 0.029
9,T31D,-0.058 ± 0.036
10,T31F,-0.149 ± 0.033
11,T31G,-0.222 ± 0.029
12,T31N,-0.055 ± 0.029
13,T31W,-0.196 ± 0.032
14,T31Q,-0.029 ± 0.028
15,T31Y,-0.117 ± 0.031
16,T31L,-0.168 ± 0.023
17,T31P,-0.59 ± 0.036
18,G16K,-0.911 ± 0.066
19,G16V,-1.08 ± 0.049
20,G16Q,-0.889 ± 0.066
21,G16P,-0.977 ± 0.063
22,G16D,-0.783 ± 0.057
23,G16R,-1.04 ± 0.042
24,G16F,-1.03 ± 0.13

row,Variant,abundance fitness
1,G16H,-1.01 ± 0.14
2,G16I,-1.32 ± 0.2
3,G16L,-1.15 ± 0.066
4,G16C,-0.956 ± 0.074
5,G16N,-0.677 ± 0.099
6,G16S,-0.813 ± 0.039
7,G16Y,-1.3 ± 0.27
8,G16T,-0.946 ± 0.061
9,G16A,-0.499 ± 0.027
10,E22A,-0.075 ± 0.024
11,E22Y,-0.012 ± 0.044
12,E22M,-0.22 ± 0.035
13,E22L,-0.315 ± 0.028
14,E22H,-0.202 ± 0.051
15,E22C,-0.074 ± 0.034
16,E22K,-0.199 ± 0.035
17,E22V,-0.066 ± 0.024
18,E22S,-0.126 ± 0.025
19,E22Q,-0.029 ± 0.035
20,E22W,-0.305 ± 0.029
21,E22P,-0.979 ± 0.086
22,E22G,-0.026 ± 0.021
23,E22T,-0.156 ± 0.034
